In FireProtDB (doi:10.1002/pro.5560061014):

B1: Barstar, P11540 (parent)
chain: MKKAVINGEQIRSISDLHQTLKKELALPEYYGENLDALWDCLTGWVEYPLVLEWRQFEQSKQLTENGAESVLQVFREAKAEGCDITIILS

Variants of: B1
Settings: Bacillus amyloliquefaciens; pH 7.4; 25 °C; Thermal; DSC; Sodium phosphate 50 mM; reversible: yes; structure 1BTA; whole UniProt chain shown

Variant	heat capacity change of unfolding [kcal/mol/K]	unfolding free energy [kJ/mol]
MKKAVINGEQIRSISDLHQTLKKELALPEYYGENLDALWDCLTGWVEYPLVLEWRQFEQSKQLTENGAESVLQVFREAKAEGADITIILS	0.86	25.5

Same assay, conditions: Bacillus amyloliquefaciens; pH 7.4; Thermal; DSC; Sodium phosphate 50 mM; reversible: yes; structure 1BTA; whole UniProt chain shown

Variant	Tm [°C]	change of melting temperature, mutant - wild type (higher = more stable) [°C]	heat capacity change of unfolding [kcal/mol/K]	unfolding enthalpy (calorimetric) [kJ/mol]
MKKAVINGEQIRSISDLHQTLKKELALPEYYGENLDALWDCLTGWVEYPLVLEWRQFEQSKQLTENGAESVLQVFREAKAEGADITIILS	71.4	-1.4	0.86	276
